Percentage of cells with PABPC1-positive stress granules after sodium arsenite data for two substances are collected here from patent US20210269780A1.

The target of the test is G3BP (human) (UniProt Q13283).

For “G3BPdi-mCherry-sspB (from UniProt Q13283)”, the percentage of cells with PABPC1-positive stress granules after sodium arsenite was 46 % of cells.

For mCherry-sspB, the percentage of cells with PABPC1-positive stress granules after sodium arsenite is 85 % of cells.
